Test results: publication PMC7325720 (The Journal of Infectious Diseases, 2019)

T1: MBP-CD74 (CD74 ectodomain fused to maltose binding protein), biotinylated (UniProt P04233 73-296, biotin (EZ-Link Sulfo-NHS-LC-Biotinylation kit))
T1 sequence (looked up): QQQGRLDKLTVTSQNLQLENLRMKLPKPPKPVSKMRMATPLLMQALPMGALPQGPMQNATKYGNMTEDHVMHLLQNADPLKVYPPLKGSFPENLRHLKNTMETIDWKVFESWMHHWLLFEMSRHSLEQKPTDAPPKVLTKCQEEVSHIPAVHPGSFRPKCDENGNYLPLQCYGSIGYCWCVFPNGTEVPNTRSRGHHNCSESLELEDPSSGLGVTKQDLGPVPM


Columns and labels:
[1] = molecular target: T1, MBP-CD74 (CD74 ectodomain fused to …); assay: BLI
[2] = molecular target: the molecule itself; assay: crystal structure

Row | Binder | Kd [1] | stoichiometry N [2]
1 | Entamoeba histolytica macrophage migration inhibitory factor (Eh-MIF) (natural protein) MPHALITLSADITEEIKKEIAHESMKILSEVIGKPISYCATQVVTSVGGFGGKIVKSAFIDIKSISGLKGKQEGLSDRYCKLLEQKAGIEGGNIYLNFTEMTGNNWGYDHSTF | 11.2 nM | 3
2 | human macrophage migration inhibitory factor (human MIF) (natural protein, UniProt P14174 1-115, looked up) MPMFIVNTNVPRASVPDGFLSELTQQLAQATGKPPQYIAVHVVPDQLMAFGGSSEPCALCSLHSIGKIGGAQNRSYSKLLCGLLAERLRISPDRVYINYYDMNAANVGWNNSTFA | 18.2 nM | –
